Results as given in patent publication US20220213456.

Tests used:
Test in all cases: cleavage_in_vitro
[1] = system: T1, OMNI-35 (Bartonella apis); details: TXTL; PAM NRR; V1, V2 tested
T1 sequence: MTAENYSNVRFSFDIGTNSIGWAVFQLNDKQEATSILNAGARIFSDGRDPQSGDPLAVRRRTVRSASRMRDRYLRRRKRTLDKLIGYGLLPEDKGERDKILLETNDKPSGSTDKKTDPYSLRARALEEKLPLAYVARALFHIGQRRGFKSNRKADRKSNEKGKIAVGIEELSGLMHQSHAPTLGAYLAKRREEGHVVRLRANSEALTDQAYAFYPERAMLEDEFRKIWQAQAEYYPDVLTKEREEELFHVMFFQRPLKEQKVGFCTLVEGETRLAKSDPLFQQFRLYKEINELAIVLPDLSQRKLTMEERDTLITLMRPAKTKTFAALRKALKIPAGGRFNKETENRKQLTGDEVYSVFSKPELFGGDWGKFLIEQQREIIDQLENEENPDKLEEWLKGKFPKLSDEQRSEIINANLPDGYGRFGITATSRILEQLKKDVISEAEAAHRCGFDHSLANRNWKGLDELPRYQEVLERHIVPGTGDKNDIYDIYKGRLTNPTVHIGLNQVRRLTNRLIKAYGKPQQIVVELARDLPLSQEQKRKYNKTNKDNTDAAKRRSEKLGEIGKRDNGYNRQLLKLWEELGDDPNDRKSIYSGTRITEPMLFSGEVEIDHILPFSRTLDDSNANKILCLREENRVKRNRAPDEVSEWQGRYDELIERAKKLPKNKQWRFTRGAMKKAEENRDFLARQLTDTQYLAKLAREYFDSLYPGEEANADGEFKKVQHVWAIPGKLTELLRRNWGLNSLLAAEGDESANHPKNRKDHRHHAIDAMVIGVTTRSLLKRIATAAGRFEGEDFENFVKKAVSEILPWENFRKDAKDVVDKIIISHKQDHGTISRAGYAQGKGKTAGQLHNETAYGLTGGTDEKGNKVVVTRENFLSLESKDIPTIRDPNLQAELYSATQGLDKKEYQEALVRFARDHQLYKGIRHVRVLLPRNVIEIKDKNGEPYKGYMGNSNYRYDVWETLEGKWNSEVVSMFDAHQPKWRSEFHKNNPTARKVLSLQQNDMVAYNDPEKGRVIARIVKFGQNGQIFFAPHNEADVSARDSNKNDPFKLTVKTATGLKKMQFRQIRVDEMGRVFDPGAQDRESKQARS

[2] = system: T2, OMNI-34 (Alistipes sp. An54); details: TXTL; PAM NRNNNNAA; sgRNA V1-V3 tested
T2 sequence: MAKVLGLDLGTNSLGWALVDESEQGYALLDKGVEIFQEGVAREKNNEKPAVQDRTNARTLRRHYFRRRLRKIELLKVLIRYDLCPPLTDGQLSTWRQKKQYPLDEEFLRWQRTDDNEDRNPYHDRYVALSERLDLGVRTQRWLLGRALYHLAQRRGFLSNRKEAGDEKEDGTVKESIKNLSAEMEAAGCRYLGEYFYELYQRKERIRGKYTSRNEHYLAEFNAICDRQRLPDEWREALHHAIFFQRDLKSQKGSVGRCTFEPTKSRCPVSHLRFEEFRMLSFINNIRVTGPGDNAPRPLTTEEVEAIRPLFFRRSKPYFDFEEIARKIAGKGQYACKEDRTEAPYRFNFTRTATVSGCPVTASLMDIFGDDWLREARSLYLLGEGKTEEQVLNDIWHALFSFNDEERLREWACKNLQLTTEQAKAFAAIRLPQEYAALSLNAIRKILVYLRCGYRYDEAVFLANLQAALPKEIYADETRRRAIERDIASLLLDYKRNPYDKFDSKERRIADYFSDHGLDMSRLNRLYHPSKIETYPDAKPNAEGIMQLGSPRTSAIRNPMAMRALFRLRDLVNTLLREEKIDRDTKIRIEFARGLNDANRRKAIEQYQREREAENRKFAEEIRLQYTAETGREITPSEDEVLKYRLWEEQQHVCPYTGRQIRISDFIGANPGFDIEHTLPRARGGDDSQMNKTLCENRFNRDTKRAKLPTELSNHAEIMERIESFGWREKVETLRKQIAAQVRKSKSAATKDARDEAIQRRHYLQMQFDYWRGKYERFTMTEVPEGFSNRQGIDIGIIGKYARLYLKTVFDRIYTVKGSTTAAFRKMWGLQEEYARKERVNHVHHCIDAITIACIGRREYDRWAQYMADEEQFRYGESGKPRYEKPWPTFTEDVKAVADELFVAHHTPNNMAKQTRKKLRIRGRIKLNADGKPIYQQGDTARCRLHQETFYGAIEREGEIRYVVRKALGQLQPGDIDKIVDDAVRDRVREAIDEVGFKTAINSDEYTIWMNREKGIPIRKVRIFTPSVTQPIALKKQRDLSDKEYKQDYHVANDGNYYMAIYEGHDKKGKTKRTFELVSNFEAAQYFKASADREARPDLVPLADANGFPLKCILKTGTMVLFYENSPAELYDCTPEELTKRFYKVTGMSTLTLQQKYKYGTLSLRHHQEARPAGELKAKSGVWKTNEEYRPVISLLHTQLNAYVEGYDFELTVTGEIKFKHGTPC

[3] = system: T3, OMNI-52 (Butyrivibrio sp. NC3005); details: TXTL; PAM NRRADT
T3 sequence: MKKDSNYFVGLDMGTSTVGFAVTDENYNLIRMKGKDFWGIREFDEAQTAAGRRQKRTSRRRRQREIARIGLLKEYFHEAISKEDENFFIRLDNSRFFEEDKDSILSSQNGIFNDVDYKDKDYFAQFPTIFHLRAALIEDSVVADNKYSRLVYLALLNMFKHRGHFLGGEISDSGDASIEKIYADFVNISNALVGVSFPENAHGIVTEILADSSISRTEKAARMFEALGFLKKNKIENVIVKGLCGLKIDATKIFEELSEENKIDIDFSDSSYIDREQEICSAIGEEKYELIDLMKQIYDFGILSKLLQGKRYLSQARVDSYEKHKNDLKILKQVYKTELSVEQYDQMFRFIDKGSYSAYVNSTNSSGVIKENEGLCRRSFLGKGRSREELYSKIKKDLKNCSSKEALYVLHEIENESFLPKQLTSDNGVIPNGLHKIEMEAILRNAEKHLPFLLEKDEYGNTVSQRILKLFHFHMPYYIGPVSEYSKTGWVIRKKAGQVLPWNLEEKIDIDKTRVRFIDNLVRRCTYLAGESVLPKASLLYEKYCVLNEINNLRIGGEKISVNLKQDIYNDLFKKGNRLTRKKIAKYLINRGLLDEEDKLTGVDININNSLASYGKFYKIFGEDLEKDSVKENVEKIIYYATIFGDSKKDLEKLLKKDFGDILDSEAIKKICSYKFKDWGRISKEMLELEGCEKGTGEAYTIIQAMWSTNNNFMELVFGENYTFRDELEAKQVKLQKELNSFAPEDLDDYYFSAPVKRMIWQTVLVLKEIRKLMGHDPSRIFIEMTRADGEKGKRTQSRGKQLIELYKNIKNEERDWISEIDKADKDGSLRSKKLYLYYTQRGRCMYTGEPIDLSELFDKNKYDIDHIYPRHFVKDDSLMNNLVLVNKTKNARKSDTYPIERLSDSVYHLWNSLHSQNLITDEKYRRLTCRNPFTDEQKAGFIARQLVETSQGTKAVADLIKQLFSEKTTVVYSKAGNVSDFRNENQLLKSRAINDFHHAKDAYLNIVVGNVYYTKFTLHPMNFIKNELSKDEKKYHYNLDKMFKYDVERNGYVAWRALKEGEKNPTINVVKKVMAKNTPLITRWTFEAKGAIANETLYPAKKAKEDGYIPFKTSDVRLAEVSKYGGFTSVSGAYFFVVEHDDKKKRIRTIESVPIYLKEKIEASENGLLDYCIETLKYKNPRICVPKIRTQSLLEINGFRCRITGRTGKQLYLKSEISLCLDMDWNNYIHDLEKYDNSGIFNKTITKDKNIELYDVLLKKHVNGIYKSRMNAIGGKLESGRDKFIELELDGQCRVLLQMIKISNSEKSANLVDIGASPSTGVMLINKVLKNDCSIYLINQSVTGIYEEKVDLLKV

[4] = system: T4, OMNI-51 (Bacteroides coagulans); details: TXTL; PAM NRRAAA
T4 sequence: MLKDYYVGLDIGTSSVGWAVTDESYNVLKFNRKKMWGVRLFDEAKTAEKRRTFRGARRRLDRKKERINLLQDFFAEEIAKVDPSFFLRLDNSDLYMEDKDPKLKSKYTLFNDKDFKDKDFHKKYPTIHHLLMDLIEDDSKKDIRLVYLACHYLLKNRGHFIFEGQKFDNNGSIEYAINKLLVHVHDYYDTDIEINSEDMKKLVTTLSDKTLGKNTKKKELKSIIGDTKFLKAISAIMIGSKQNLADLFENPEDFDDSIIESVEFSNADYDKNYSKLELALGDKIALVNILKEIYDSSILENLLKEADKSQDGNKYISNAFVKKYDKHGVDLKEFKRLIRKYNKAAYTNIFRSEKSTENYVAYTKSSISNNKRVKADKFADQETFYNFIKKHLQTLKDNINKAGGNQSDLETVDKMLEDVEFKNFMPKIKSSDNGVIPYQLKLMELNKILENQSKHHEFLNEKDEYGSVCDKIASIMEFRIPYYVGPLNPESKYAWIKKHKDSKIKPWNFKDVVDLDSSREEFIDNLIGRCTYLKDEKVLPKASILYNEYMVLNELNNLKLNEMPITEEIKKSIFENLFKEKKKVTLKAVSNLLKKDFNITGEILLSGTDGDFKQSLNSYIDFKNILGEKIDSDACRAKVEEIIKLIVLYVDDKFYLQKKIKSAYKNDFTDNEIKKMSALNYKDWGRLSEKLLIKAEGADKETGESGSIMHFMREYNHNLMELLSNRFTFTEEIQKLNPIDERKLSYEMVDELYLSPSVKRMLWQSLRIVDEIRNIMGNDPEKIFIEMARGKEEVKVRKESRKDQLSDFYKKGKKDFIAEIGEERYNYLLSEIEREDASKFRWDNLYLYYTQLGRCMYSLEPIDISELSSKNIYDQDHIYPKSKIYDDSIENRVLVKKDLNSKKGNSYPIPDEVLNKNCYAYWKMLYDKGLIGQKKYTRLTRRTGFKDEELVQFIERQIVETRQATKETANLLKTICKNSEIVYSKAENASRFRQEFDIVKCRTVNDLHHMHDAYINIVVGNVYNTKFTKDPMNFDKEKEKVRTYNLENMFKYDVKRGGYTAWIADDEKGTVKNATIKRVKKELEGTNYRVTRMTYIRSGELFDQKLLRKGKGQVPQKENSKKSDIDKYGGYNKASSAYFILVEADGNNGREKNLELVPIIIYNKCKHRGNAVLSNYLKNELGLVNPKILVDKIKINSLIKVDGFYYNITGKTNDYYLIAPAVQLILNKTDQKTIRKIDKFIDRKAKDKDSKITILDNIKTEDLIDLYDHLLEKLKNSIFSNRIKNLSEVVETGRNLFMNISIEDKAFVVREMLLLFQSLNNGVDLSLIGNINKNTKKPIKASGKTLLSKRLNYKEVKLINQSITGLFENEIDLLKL

GGAAGAGCAGAGCCUUGGUCUCGUUGCGGCUUGACCGCGAAAGCGGUCUGGCUGUUAACAAGCUAGAUAUGCACCAAAUAAGACAGCUCCUCCGGGGGCUGUUUUUU / GGAAGAGCAGAGCCTTGGTCTCNNNNNNNN / NNNNNNNNGAGACCAAGGCTCTGCTCTTCC [OMNI-35 T2 sgRNA V1 ; pbPOS T2 protospacer 8N PAM library]
activity (1-depletion score) [1]: 0.97

GGAAGAGCAGAGCCUUGGUCUCGUUGUGGUUUGAUGUAGAAAUACAUCUUACCACAAUAAGGCUAUAUGCCGAAGGUUUUCAACCUACCGUCUCCGCGUAUUCCGUGGAGACUUUUUU / GGAAGAGCAGAGCCTTGGTCTCNNNNNNNN / NNNNNNNNGAGACCAAGGCTCTGCTCTTCC [OMNI-34 T2 sgRNA V1 ; pbPOS T2 protospacer 8N PAM library]
activity (1-depletion score) [2]: 0.82

GGAAGAGCAGAGCCUUGGUCUCGUUUGAGAGCUUUGGAAACAAAGCGAGUGCAAAUAAGGUUUUACCGGAAUCGUCUUUAUUAAGAACCGCAUGGUGCGGAUUAUUUAGAAGCCAUUUAGAUGGCUUCUAUUUU / GGAAGAGCAGAGCCTTGGTCTCNNNNNNNN / NNNNNNNNGAGACCAAGGCTCTGCTCTTCC [OMNI-52 T2 sgRNA V1 ; pbPOS T2 protospacer 8N PAM library]
activity (1-depletion score) [3]: 1

GGAAGAGCAGAGCCUUGGUCUCGUUUGAGAGUUAUGGAAACAUGACAGAGUUCAAAUAAAAAUUUAUUCAAACCGCCUAUUUAAUUAUAGGCCGCAGAUGUUCUGCACUAUGCUUGCAAGGUUGCAAGCUUUUUU / GGAAGAGCAGAGCCTTGGTCTCNNNNNNNN / NNNNNNNNGAGACCAAGGCTCTGCTCTTCC [OMNI-51 T2 sgRNA V1 ; pbPOS T2 protospacer 8N PAM library]
activity (1-depletion score) [4]: 1
